Test [1] has as its target HLA-A*03:01. The test is described as follows: IEDB peptide-MHC binding, purified MHC/competitive/fluorescence; ≥ and ≤ were set here for values at or beyond the usual limits of such assays.
In test [2] the target is HLA-A*11:01. The description is as above.
Test [3] has as its target HLA-C*14:02. The test is described as follows: IEDB peptide-MHC binding, purified MHC/direct/fluorescence; filed as Kd, often an IC50 or EC50 that approximates it; ≥ and ≤ were set here for values at or beyond the usual limits of such assays.
The target in test [4] is HLA-B*15:17. The test is described as follows: IEDB peptide-MHC binding, purified MHC/competitive/fluorescence; filed as Kd, often an IC50 or EC50 that approximates it; ≥ and ≤ were set here for values at or beyond the usual limits of such assays.
Test [5] has as its target HLA-B*46:01. Described as above.
Test [6] addresses HLA-A*02:19. The test is described as above. The conditions noted are these: source organism: Entamoeba histolytica HM-1:IMSS.
In test [7] the target is HLA-B*15:01. The description is as above.
The target of test [8] is HLA-A*29:02. The description is as above. The note with it: source organism: Entamoeba histolytica HM-1:IMSS.
In test [9] the target is HLA-A*03:01. The description is as above. The note with it: source organism: Entamoeba histolytica HM-1:IMSS.
Test [10] addresses HLA-B*18:01. The test is described as above.
The target of test [11] is HLA-A*02:01. The description is as above.
The target in test [12] is HLA-B*51:01. The description is as above.
Test [13] concerns the target HLA-B*27:03. The description is as above.
Test [14] deals with HLA-A*26:01. The test is described as above.
Test [15] addresses HLA-B*57:01. Described as above.
Test [16] concerns the target HLA-A*01:01. As to the kind of experiment: IEDB peptide-MHC binding, purified MHC/direct/fluorescence; filed as Kd, often an IC50 or EC50 that approximates it; ≥ and ≤ were set here for values at or beyond the usual limits of such assays.
Test [17] deals with HLA-A*29:02. Described as above.
The target in test [18] is HLA-A*02:12. The description is as above.
Test [19] has as its target HLA-A*02:03. Described as above.
The target in test [20] is HLA-A*02:19. Described as above.
Test [21] concerns the target HLA-A*02:16. The description is as above.
Test [22] concerns the target HLA-A*03:01. Described as above.
The target in test [23] is HLA-B*07:02. The test is described as above.
The target of test [24] is HLA-A*02:11. The description is as above.
The target of test [25] is HLA-A*68:02. The test is described as above.
In test [26] the target is HLA-A*24:03. The test is described as above.
The target of test [27] is HLA-B*39:01. As to the kind of experiment: IEDB peptide-MHC binding, purified MHC/competitive/fluorescence; filed as Kd, often an IC50 or EC50 that approximates it; ≥ and ≤ were set here for values at or beyond the usual limits of such assays. The conditions noted are these: source organism: Orthohantavirus andesense.
Test [28] concerns the target HLA-B*35:01. The description is as above. The note with it: source organism: Orthohantavirus andesense.
Test [29] addresses HLA-A*69:01. The description is as above. The note with it: source organism: Orthohantavirus andesense.
Test [30] addresses HLA-A*02:01. The test is described as follows: IEDB peptide-MHC binding, purified MHC/competitive/fluorescence; ≥ and ≤ were set here for values at or beyond the usual limits of such assays.
Test [31] concerns the target HLA-B*15:03. The test is described as follows: IEDB peptide-MHC binding, purified MHC/competitive/radioactivity; filed as Kd, often an IC50 or EC50 that approximates it; ≥ and ≤ were set here for values at or beyond the usual limits of such assays. The conditions noted are these: source organism: Vaccinia virus WR.
Test [32] has as its target HLA-B*15:01. The test is described as follows: IEDB peptide-MHC binding, purified MHC/competitive/fluorescence; ≥ and ≤ were set here for values at or beyond the usual limits of such assays. The conditions noted are these: source organism: Vaccinia virus.
Test [33] deals with HLA-A*24:02. Described as above.
Test [34] deals with HLA-B*40:01. As to the kind of experiment: IEDB peptide-MHC binding, purified MHC/direct/fluorescence; filed as Kd, often an IC50 or EC50 that approximates it; ≥ and ≤ were set here for values at or beyond the usual limits of such assays. The conditions noted are these: source organism: Orthohantavirus andesense.
Test [35] addresses HLA-B*15:42. As to the kind of experiment: IEDB peptide-MHC binding, purified MHC/competitive/fluorescence; filed as Kd, often an IC50 or EC50 that approximates it; ≥ and ≤ were set here for values at or beyond the usual limits of such assays. The conditions noted are these: source organism: Orthohantavirus andesense.
The target of test [36] is HLA-B*83:01. The description is as above. The note with it: source organism: Orthohantavirus andesense.
In test [37] the target is HLA-B*45:06. Described as above. The conditions noted are these: source organism: Orthohantavirus andesense.
Setting [38] is: source organism: Vaccinia virus.
The mark [39] stands for this setting: source organism: Mycobacterium tuberculosis variant bovis BCG str. Pasteur 1173P2.
Where [40] appears, read: source organism: Entamoeba histolytica HM-1:IMSS.
[41] abbreviates: source organism: Mammarenavirus juninense.
Where [42] appears, read: source organism: Orthohantavirus andesense.
Where [43] appears, read: source organism: Zaire ebolavirus.
The mark [44] stands for this setting: source organism: Sudan ebolavirus.

Results on 13 sequences are retold here after the Immune Epitope Database (IEDB).

In the case of SIATNLEYK, the 50% inhibitory concentration (IC50) in test [1] (setting [38]) was determined as 3.98 µM; in [2] (setting [38]), 0.427 µM.

Consider APINSATAM, for which the Kd in test [3] (setting [39]) turned out to be 0.321 µM.

Consider YLHIHPFKI, for which the Kd in [4] (setting [40]) was no less than 20 µM; in [5] (setting [40]), no less than 20 µM; in [6] it was 0.0678 µM; in [7] (setting [40]), no less than 20 µM; in test [8] it was no less than 20 µM; in test [9] it was no less than 20 µM. In addition, the equilibrium dissociation constant (Kd) in [10] (setting [40]) was no less than 20 µM; in test [11] (setting [40]), 0.0061 µM; in test [12] (setting [40]), no less than 20 µM; in test [13] (setting [40]), no less than 20 µM; in test [14] (setting [40]), no less than 20 µM; in test [15] (setting [40]) it was no less than 20 µM.

Turning to HTEFQTVSF, the Kd is 2.29 µM in test [16] (setting [41]) and no less than 20 µM in [17] (setting [41]).

As to KPKALSEAF, the Kd in test [18] (source organism: Oran virus), in test [19] (source organism: Oran virus), in [20] (source organism: Oran virus), in test [17] (source organism: Oran virus), in test [21] (source organism: Oran virus) and in test [22] (source organism: Oran virus) was no less than 20 µM throughout. The Kd was 0.0765 µM in [23] (source organism: Oran virus); no less than 20 µM in test [24] (source organism: Oran virus); no less than 20 µM in test [25] (source organism: Oran virus); no less than 20 µM in test [26] (source organism: Oran virus); no less than 20 µM in [27]; no less than 20 µM in test [4] (setting [42]). Further, the dissociation constant (Kd) in test [5] (setting [42]) was no less than 20 µM; in test [7] (setting [42]), no less than 20 µM; in test [28], 0.0223 µM; in test [10] (setting [42]), no less than 20 µM; in [11] (setting [42]), no less than 20 µM; in [29] it was no less than 20 µM. Also, the Kd in test [12] (setting [42]), in test [13] (setting [42]), in test [14] (setting [42]) and in test [15] (setting [42]) was no less than 20 µM throughout.

In the case of LLQKYPPPR, the concentration for half-maximal inhibition (IC50) in test [1] (setting [38]) was 4.03 µM; in test [2] (setting [38]), 7.75 µM; in test [30] (setting [38]) it was no less than 101 µM.

In the case of RTNGASYAY, the dissociation constant (Kd) is 0.199 µM in test [16] (source organism: Mycobacterium tuberculosis) and no more than 0.001 µM in test [17] (source organism: Mycobacterium tuberculosis str. Haarlem).

As for SLYPNVCIF, the Kd in test [31] worked out at 0.00494 µM. For the same sequence, the 50% inhibitory concentration (IC50) in test [32] is 5.7 µM; in test [33] (setting [38]), 0.0384 µM; in test [1] (setting [38]), no less than 365 µM; in test [30] (setting [38]), 1.88 µM.

Turning to AFLILPQAK, the IC50 in [33] (setting [43]) is 26.9 µM; in test [1] (setting [43]) it was 20 µM; in test [2] (setting [43]) it was 14.1 µM.

Turning to APPPFRLPL, the dissociation constant (Kd) in test [23] (setting [39]) was found to be 0.0775 µM; in test [3] (source organism: Mycobacterium tuberculosis H37Rv), 0.714 µM.

IQNVPGPHR: the IC50 in [33] (setting [43]) was 6.86 µM; in test [1] (setting [43]), 8.53 µM; in test [2] (setting [43]), 0.889 µM; in test [30] (setting [43]) it was no less than 119 µM.

Consider LEEDIQHFL, for which the Kd in test [18] (setting [42]), in test [19] (setting [42]), in [20] (setting [42]), in test [17] (setting [42]), in [21] (setting [42]) and in test [22] (setting [42]) was no less than 20 µM each time. The dissociation constant Kd was no less than 20 µM in [24] (setting [42]); no less than 20 µM in test [25] (setting [42]); no less than 20 µM in [26] (setting [42]); 0.0002 µM in [34]; no less than 20 µM in test [27]; no less than 20 µM in test [4] (setting [42]). The dissociation constant Kd in [35] is no less than 5 µM; in test [36], no less than 5 µM; in [5] (setting [42]) it was no less than 20 µM; in test [7] (setting [42]) it was no less than 20 µM; in [10] (setting [42]), no less than 20 µM; in test [11] (setting [42]), no less than 20 µM. Besides, the equilibrium dissociation constant (Kd) in test [29] is no less than 20 µM; in test [12] (setting [42]) it was no less than 20 µM; in [13] (setting [42]), no less than 20 µM; in test [14] (setting [42]), no less than 20 µM; in [15] (setting [42]), no less than 20 µM; in [37] it was no less than 5 µM.

As to ILGSLGLRK, the 50% inhibitory concentration (IC50) was 0.872 µM in test [1] (setting [44]), 0.219 µM in [2] (setting [44]) and no less than 141 µM in [30] (setting [44]).

By IC50 is commonly meant the concentration that gives 50% inhibition. A higher IC50 goes with lower potency. For orientation: Kd means the concentration at which binding is half-saturated.
